Test results reported in patent US20150184142.

Experiments:
Compound 7 = system: T1, Compound 7
T1 sequence: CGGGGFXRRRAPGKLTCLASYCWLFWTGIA

thrombin
cleavage by 1.4 nM thrombin at 37 C, HPLC (Compound 1): 30% of Compound 1 was quickly cleaved and released | cleavage rate with 14 nM thrombin, HPLC, against Compound 2 (Compound 1): at least 10-fold increase in cleavage rate compared to that of Compound 2 | cleavage by 1.4 nM thrombin at 37 C, HPLC (Compound 4): Compound 1 was a better substrate for thrombin than Compounds 4 and 5 | cleavage by 1.4 nM thrombin at 37 C, HPLC (Compound 5): Compound 1 was a better substrate for thrombin than Compounds 4 and 5 | cleavage by 1.4 nM thrombin in PBS at 37 C, HPLC (Compound 7): Approximately 90% of Compound 7 was cleaved after 30 minutes
